Experiments:
[1] = biological target: HIV-1 NL4-3 Vif N48H (residues 1-176) (HIV-1 (pNL4-3)) (UniProt P12504)
[2] = biological target: HIV-1 pNL4-3 Vif N48H/R93E, expressed in HEK293T (HIV-1 (pNL4-3)) (UniProt P12504)

Row | Substance | Vif-mediated degradation assay: resistance of A3H to Vif (+N48H), Western blot [1] [%] | Vif-mediated degradation assay: increase of the A3H level in the presence of the Vif mutant, Western blot [2] [%]
1 | human A3H K97Q/E70R, expressed in HEK293T (natural protein) | 40 | 
2 | human A3H haplotype II K97Q (MBP tag cleaved) (natural protein) |  | 70
